Bridge positions count the residues as written; N and C are the ends. Square brackets hold non-standard residues; d marks the D form. Phe(4-tBu) = CC(C)(C)c1ccc(C[C@H](N)C(=O)O)cc1; 2Nal = N[C@@H](Cc1ccc2ccccc2c1)C(=O)O; NMeR = CN[C@@H](CCCNC(=N)N)C(=O)O; β3hE = N[C@@H](CCC(=O)O)CC(=O)O; NMeK = CN[C@@H](CCCCN)C(=O)O; Pen = CC(C)(S)[C@H](N)C(=O)O; dNMeK = CN[C@H](CCCCN)C(=O)O
B1: SEQ ID NO: 67 (peptide)
peptide: Ac-[Pen][NMeR]SDTL[Pen]WE[dK]-NH2
modifications: disulfide 1-7; not fully specified (residue 10); printed as (Ac Pen N-Me-R S D T L Pen W E k NH2)2 DIG, disulfide Pen-Pen; also: homodimer via DIG linker
notes: also called Peptide Z
B2: SEQ ID NO: 68 (peptide)
peptide: Ac-[Pen][NMeR]SDTL[Pen]W[dE][dK]-NH2
modifications: disulfide 1-7; not fully specified (residue 10); printed as (Ac Pen N-Me-R S D T L Pen W e k NH2)2 DIG, disulfide Pen-Pen; also: homodimer via DIG linker
B3: SEQ ID NO: 78 (peptide)
peptide: Ac-[Pen][NMeR]SDTL[Pen]WE[dK]-OH
modifications: disulfide 1-7; not fully specified (residue 10); printed as (Ac Pen N-Me-R S D T L Pen W E k OH)2 DIG, disulfide Pen-Pen; also: homodimer: two subunits linked by DIG via D-Lys10 side chain
B4: SEQ ID NO: 218 (peptide)
peptide: Ac-[Pen][NMeR]SDTL[Pen][Phe(4-tBu)][β3hE][dK]-NH2
modifications: disulfide 1-7; not fully specified (residue 10); printed as (Ac Pen N-Me-R S D T L Pen F(4-tBu) b-H-E k NH2)2 DIG, disulfide Pen-Pen; also: dimer, two subunits joined by DIG linker
notes: also called peptide 218
B5: SEQ ID NO: 215 (peptide)
peptide: Ac-[Pen][NMeR]SDTL[Pen]WE[NMeK]-NH2
modifications: disulfide 1-7; not fully specified; printed as [Ac-Pen-(N-Me-Arg)-Ser-Asp-Thr-Leu-Pen-Trp-Glu-(N-Me-Lys)-NH2]2-DIG; also: homodimer: two identical subunits joined by DIG linker at the Lys10 side chains, each subunit has its own Pen1-Pen7 disulfide
notes: also called peptide 215
B6: SEQ ID NO: 214 (peptide)
peptide: Ac-[Pen][NMeR]SDTL[Pen]WE[dNMeK]-NH2
modifications: disulfide 1-7; not fully specified (residue 10); printed as (Ac Pen N-Me-R S D T L Pen W E N-Me-k NH2)2 DIG, disulfide Pen-Pen; also: dimer, two subunits joined by DIG linker
notes: also called peptide 214
B7: SEQ ID NO: 216 (peptide)
peptide: Ac-[Pen][NMeR]SDTL[Pen]W[dE][dK]-OH
modifications: disulfide 1-7; not fully specified (residue 10); printed as (Ac Pen N-Me-R S D T L Pen W e k OH)2 DIG, disulfide Pen-Pen; also: dimer, two subunits joined by DIG linker
notes: also called peptide 216

What follows are binders tested against α4β1 (R&D Systems #5668-A4) (UniProt P13612) (assay: competition ELISA vs VCAM-1).

| IC50 | Binder |
| --- | --- |
| 70 nM | Ac-[Pen][NMeR]SDTL[Pen][2Nal]E[dK]-NH2 (disulfide 1-7; also: dimer (…)2 DIG, attachment not given here) [SEQ ID NO: 212] |

These binders were tested against T1, human α4β1 integrin on cells (human, UniProt P13612 34-1032; P05556 21-798) (assay: Jurkat cell adhesion to VCAM-1).
T1 construct: whole, on cells; also called α4β1 cell; Jurkat cells

| IC50 | Binder |
| --- | --- |
| > 100000 nM | B1 |
| > 100000 nM | B2 |
| > 100000 nM | B3 |

The binders below were run against T2, rh integrin α4β7 (R&D Systems #5397-A30) (human, UniProt P13612 34-970; P26010 20-723) (assay: competition ELISA vs MAdCAM-1).
T2 construct: bought; coated on a nickel coated plate; also called immobilized α4β7; immobilized α4β7 integrin protein

| IC50 | Binder |
| --- | --- |
| 2.8 nM | B4 |
| 2.2 nM | B5 |
| 4.1 nM | B6 |
| 2.8 nM | B7 |

The binders below were run against mouse α4β7 integrin on TK1 cells (mouse) (UniProt Q00651) (assay: TK1 cell adhesion to MAdCAM-1).
Sequence of mouse α4β7 integrin on TK1 cells (mouse) (Q00651 41-1039, chain 1 of 2): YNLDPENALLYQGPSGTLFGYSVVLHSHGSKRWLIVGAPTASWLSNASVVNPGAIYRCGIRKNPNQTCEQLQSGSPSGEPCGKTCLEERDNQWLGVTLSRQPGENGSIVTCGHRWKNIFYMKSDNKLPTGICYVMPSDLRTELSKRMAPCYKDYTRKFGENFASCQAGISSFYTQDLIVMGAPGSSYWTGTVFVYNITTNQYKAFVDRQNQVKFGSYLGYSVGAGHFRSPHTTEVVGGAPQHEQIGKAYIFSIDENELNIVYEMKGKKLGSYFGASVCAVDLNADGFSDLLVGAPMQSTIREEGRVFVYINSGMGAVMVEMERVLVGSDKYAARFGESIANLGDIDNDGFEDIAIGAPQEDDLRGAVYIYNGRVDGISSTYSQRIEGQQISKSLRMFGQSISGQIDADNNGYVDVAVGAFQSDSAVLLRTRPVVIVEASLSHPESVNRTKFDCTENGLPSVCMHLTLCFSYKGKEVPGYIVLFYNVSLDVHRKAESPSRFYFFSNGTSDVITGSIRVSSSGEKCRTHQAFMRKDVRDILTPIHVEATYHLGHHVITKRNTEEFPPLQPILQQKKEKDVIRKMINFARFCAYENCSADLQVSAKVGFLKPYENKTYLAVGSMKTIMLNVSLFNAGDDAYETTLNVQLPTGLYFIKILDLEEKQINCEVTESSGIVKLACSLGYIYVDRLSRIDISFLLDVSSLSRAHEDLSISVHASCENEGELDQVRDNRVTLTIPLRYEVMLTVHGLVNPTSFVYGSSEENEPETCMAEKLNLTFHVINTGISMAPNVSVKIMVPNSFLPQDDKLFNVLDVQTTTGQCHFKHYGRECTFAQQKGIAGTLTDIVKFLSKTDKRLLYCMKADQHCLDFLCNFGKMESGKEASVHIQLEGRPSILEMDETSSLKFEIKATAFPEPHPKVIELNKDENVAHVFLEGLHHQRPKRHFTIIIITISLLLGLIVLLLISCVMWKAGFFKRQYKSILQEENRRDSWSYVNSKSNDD
Sequence of mouse α4β7 integrin on TK1 cells (mouse) (P26011 20-806, chain 2 of 2, further chain): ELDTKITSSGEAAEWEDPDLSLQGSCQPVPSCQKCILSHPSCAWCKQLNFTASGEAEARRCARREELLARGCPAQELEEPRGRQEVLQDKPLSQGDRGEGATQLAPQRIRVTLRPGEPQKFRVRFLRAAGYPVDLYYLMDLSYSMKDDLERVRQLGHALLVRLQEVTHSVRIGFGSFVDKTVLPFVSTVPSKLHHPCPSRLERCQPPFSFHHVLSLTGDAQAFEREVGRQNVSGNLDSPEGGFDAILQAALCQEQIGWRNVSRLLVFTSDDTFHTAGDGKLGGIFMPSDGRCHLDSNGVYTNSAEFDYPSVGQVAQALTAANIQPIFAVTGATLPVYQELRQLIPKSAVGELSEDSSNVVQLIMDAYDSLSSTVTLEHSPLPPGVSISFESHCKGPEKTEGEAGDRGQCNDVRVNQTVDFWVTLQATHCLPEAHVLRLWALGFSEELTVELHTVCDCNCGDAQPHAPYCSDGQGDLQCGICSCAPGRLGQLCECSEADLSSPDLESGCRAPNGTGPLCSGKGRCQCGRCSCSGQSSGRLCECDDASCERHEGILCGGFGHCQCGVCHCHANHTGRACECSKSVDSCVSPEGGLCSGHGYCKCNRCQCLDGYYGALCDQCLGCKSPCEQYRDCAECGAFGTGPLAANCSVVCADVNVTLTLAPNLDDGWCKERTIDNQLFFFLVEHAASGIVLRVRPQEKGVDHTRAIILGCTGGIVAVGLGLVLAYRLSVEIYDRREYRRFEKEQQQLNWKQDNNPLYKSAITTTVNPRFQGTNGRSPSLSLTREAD

| IC50 | Binder |
| --- | --- |
| 2.5 nM | Ac-[Pen][NMeR]SDTL[Pen][2Nal]E[dK]-NH2 (disulfide 1-7; also: dimer (…)2 DIG, attachment not given here) [SEQ ID NO: 212] |

The binders below were run against T3, human α4β7 integrin on cells (human, UniProt P13612 34-1032; P26010 20-798) (assay: RPMI8866 cell adhesion to MAdCAM-1).
T3 construct: whole, on cells; also called α4β7 cell (Hu); RPMI8866 cells

| IC50 | Binder |
| --- | --- |
| ≤ 10 nM | B1 |
| > 25 nM | B2 |
| ≤ 10 nM | B3 |

Molecular target: T2, rh integrin α4β7 (R&D Systems #5397-A30)
Assay: competition ELISA vs MAdCAM-1
Remark: another data set of the same source

| IC50 | Binder |
| --- | --- |
| ≤ 10 nM | B1 |
| ≤ 10 nM | B2 |
| ≤ 10 nM | B3 |

Each binder was assayed against T4, α4β1 (R&D Systems #5668-A4) (UniProt P13612 34-970; P05556 21-728, limits assumed) (assay: competition ELISA vs VCAM-1).
T4 construct: bought; also called soluble α4β1

| IC50 | Binder |
| --- | --- |
| > 100 nM | B1 |
| > 500 nM | B2 |
| > 100 nM | B3 |

These binders were tested against T5, mouse α4β7 integrin on TK1 cells (mouse, UniProt Q00651 41-1039; P26011 20-806) (assay: TK1 cell adhesion to MAdCAM-1).
T5 construct: whole, on cells; also called α4β7 cell (Mu); Cell Adhesion α4β7 Mouse
T5 sequence (Q00651 41-1039, chain 1 of 2): as the sequence (Q00651 41-1039, chain 1 of 2) above
T5 sequence (P26011 20-806, chain 2 of 2): as the sequence (P26011 20-806, chain 2 of 2, further chain) above

| IC50 | Binder |
| --- | --- |
| 0.5 nM | B4 |
| 0.9 nM | B5 |
| 1.1 nM | B6 |
| 1 nM | B7 |

Molecular target: T1, human α4β1 integrin on cells
Assay: Jurkat cell adhesion to VCAM-1
Remark: another data set of the same source

| IC50 | Binder |
| --- | --- |
| > 100000 nM | B4 |
| > 100000 nM | B7 |

Molecular target: T5, mouse α4β7 integrin on TK1 cells
Assay: TK1 cell adhesion to MAdCAM-1
Remark: another data set of the same source

| IC50 | Binder |
| --- | --- |
| ≤ 10 nM | B1 |
| ≤ 10 nM | B2 |
| ≤ 10 nM | B3 |

The binders below were run against T3, human α4β7 integrin on cells (assay: PBMC memory T cell adhesion).

| IC50 | Binder |
| --- | --- |
| > 100 nM | B2 |

What follows are binders tested against human α4β7 integrin on cells (human) (UniProt P13612) (assay: RPMI8866 cell adhesion to MAdCAM-1).

| IC50 | Binder |
| --- | --- |
| 2.5 nM | Ac-[Pen][NMeR]SDTL[Pen][2Nal]E[dK]-NH2 (disulfide 1-7; also: dimer (…)2 DIG, attachment not given here) [SEQ ID NO: 212] |

Molecular target: T3, human α4β7 integrin on cells
Assay: RPMI8866 cell adhesion to MAdCAM-1
Remark: another data set of the same source

| IC50 | Binder |
| --- | --- |
| 0.78 nM | B4 |
| 3 nM | B5 |
| 2.5 nM | B6 |
| 4.2 nM | B7 |

Molecular target: T3, human α4β7 integrin on cells
Assay: PBMC memory T cell adhesion
Remark: another data set of the same source

| IC50 | Binder |
| --- | --- |
| 2 nM | B4 |
| 16.5 nM | B5 |
| 24.5 nM | B6 |
| 14.5 nM | B7 |

The binders below were run against rh integrin α4β7 (R&D Systems #5397-A30) (human) (UniProt P13612) (assay: competition ELISA vs MAdCAM-1).

| IC50 | Binder |
| --- | --- |
| 2 nM | Ac-[Pen][NMeR]SDTL[Pen][2Nal]E[dK]-NH2 (disulfide 1-7; also: dimer (…)2 DIG, attachment not given here) [SEQ ID NO: 212] |

Molecular target: T4, α4β1 (R&D Systems #5668-A4)
Assay: competition ELISA vs VCAM-1
Remark: another data set of the same source

| IC50 | Binder |
| --- | --- |
| 490 nM | B4 |
| 270 nM | B5 |
| 436 nM | B6 |
| 247 nM | B7 |

Each binder was assayed against human α4β1 integrin on cells (human) (UniProt P13612) (assay: Jurkat cell adhesion to VCAM-1).

| IC50 | Binder |
| --- | --- |
| > 100000 nM | Ac-[Pen][NMeR]SDTL[Pen][2Nal]E[dK]-NH2 (disulfide 1-7; also: dimer (…)2 DIG, attachment not given here) [SEQ ID NO: 212] |

From US20220162261A1 (published 2022)
